Target: T1, SARS-CoV-2 S1亚基 (SARS-CoV-2, UniProt P0DTC2 16-685)
T1 construct: also called S1蛋白
Experiment: ELISA, coated S1, antibody detected with HRP goat anti-human IgG

Binder	binding result
抗体37G2 (antibody, V domains shown) VH: QVQLVQSGAEVKKPGSSVKVSCKASGGTFSSYAITWVRQAPGQGLEWMGGIIPIFGTANFAQKFQGRVTITADESTSTAYMELSSLRSEDTAVYYCAHLGGFADPFDYWGQGTLVTVSS VL: EIVLTQSPATLSLSPGERATLSCRASQSVSNYLAWYQQKAGQAPRVLIYDAFNRATGIPARFSGSGSGTDFTLTISSLEPEDFAVYYCQQRSNWPPRITFGQGTRLEIK	no binding (tested: 1 μg/mL)
抗体31C2 (antibody, V domains shown) VH: QVQLVQSGAEVKKPGSSVKVSCKASGGTFSSYAISWVRQAPGQGLEWMGGIIPIFGTTNYAQKFQGRVTITADESTSTAYMELNSLRSEDTAVYYCAGRSAYGDKGYYFDYWGQGTLVTVSS VL: EIVLTQSPATLSLSPGERATLSCRASQSVSNFLAWYQQKPGQAPRLLIYDASNRATGIPARFSGSGSGTDFTLTISSLQPEDFAVYYCQQRSNWPPQETFGQGTKVEIK	no binding (tested: 1 μg/mL)

— patent CN112552399A (HENGYI BIOMEDICAL TECH SHANGHAI CO LTD, dated 2021)
